Consider two substances from patent publication US11866467.

The target of assay [1] is TGF-β receptor on human peripheral blood CD4+ T cells (human) (UniProt P36897). The assay can be described thus: cell-based or functional assay.
The target in assay [2] is TGF-β receptor (type I and II receptors) on mouse cells (MFB-F11 fibroblasts, mouse splenocytes, mouse CD4+ T cells) (mouse) (UniProt Q64729). Description: cell-based or functional assay.
UniProt Q64729, sequence (Q64729 30-503, chain 1 of 2): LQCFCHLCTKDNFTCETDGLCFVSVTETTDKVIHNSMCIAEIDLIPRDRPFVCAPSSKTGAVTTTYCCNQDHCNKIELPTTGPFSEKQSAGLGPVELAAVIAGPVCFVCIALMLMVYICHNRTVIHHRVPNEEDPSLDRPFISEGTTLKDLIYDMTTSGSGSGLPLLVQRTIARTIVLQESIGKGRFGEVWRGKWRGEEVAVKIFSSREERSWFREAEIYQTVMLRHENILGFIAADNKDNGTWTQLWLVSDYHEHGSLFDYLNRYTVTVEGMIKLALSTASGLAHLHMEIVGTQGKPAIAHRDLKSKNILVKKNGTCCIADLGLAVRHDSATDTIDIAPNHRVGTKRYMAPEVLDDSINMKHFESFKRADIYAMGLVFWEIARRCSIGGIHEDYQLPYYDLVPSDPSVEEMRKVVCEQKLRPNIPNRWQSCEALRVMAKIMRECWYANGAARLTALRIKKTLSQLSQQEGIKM
UniProt Q64729, sequence (Q62312 24-567, chain 2 of 2, further chain): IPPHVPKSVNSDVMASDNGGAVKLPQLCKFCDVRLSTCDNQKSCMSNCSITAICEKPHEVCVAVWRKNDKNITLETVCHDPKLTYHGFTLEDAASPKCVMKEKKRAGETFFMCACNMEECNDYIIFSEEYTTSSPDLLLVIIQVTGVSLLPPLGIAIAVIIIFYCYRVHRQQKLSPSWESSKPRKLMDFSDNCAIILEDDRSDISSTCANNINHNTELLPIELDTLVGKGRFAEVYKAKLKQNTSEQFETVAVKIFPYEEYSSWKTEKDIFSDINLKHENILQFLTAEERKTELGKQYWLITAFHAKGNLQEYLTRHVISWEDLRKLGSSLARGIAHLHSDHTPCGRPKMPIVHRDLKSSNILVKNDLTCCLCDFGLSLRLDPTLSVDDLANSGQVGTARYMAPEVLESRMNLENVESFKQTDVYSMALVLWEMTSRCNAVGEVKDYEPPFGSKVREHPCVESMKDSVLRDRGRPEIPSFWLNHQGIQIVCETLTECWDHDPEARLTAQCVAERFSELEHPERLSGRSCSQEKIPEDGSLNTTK

UniProt P36897, sequence (P36897 34-503, chain 1 of 2): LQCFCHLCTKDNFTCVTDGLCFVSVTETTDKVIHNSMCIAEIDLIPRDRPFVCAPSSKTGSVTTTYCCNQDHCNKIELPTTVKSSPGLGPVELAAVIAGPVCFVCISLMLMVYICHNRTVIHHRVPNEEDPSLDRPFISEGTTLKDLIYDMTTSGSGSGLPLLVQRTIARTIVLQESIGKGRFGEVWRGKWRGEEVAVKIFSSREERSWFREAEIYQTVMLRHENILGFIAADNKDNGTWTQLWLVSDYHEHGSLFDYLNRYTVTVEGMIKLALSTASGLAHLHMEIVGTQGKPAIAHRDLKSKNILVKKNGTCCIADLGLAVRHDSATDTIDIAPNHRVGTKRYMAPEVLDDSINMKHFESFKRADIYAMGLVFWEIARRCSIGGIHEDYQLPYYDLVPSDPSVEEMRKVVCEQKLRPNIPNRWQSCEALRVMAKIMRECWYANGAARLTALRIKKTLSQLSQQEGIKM
UniProt P36897, sequence (P37173 23-567, chain 2 of 2, further chain): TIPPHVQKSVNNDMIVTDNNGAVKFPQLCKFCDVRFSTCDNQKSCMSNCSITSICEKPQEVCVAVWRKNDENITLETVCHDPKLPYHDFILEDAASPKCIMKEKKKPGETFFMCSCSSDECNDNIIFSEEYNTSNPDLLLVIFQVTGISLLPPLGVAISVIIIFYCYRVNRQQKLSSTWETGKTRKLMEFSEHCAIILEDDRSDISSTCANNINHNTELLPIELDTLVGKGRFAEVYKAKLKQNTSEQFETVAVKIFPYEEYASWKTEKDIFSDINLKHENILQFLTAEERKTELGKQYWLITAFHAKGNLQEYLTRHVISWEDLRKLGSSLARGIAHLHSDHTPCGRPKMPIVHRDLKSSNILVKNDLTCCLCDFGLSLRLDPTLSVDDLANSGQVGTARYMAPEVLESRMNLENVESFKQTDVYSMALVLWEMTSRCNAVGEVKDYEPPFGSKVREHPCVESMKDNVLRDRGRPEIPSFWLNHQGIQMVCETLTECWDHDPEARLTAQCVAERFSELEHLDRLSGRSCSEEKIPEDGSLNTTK

In assay [1], “H. polygyrus TGF-β Mimic (TGM), purified recombinant protein with hexa-histidine C-terminal tag (ligand)” gave a CD4+CD25+Foxp3+ Treg among human CD4+ T cells, maximum of 84%. In assay [2], the Foxp3+ Treg conversion, % of all mouse CD4+ cells at 38.1 ng/ml (0.78 nM) was found to be 90.7% and the MFB-F11 reporter cells, alkaline phosphatase, OD405 at 100 ng/ml (maximum signal) turned out to be 2.46 OD405.
“recombinant human TGF-β1 (R&D Systems) (from UniProt P01137 279-390) (ligand)”: in assay [2], the Foxp3+ Treg conversion, % of all mouse CD4+ cells at 10 ng/ml (0.78 nM monomeric hTGF-β1) was 79.7% and the MFB-F11 reporter cells, alkaline phosphatase, OD405 at 100 ng/ml (maximum signal) was 1.48 OD405.
